{"source": "patent US20240400685A1", "key": {"human CD20 (human)": {"target": "human CD20 (human) (UniProt P11836)", "sequence (P11836 whole entry)": "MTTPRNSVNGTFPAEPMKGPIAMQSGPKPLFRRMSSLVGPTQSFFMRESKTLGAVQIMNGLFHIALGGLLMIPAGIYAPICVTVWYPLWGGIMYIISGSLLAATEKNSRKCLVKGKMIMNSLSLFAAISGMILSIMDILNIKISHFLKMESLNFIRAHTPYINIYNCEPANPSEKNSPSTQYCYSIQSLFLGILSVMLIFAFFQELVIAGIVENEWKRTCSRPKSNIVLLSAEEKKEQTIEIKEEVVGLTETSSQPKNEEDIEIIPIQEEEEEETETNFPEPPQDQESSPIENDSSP", "assay": "cell-based or functional assay"}, "[1]": {"target": "human CD3 epsilon (human) (UniProt P07766)", "sequence (P07766 23-207)": "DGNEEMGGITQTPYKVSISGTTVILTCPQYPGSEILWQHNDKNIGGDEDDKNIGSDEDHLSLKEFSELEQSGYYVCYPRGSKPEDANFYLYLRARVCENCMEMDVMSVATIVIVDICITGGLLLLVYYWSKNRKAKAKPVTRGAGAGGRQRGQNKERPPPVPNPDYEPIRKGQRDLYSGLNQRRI", "assay": "cell-based or functional assay"}}, "data": [{"substance": "epcoritamab LMWS fraction (Fc+Fab fragment)", "values": [{"measurement": "biological activity, T-cell activation assay", "setting": "human CD20 (human)", "value": 40, "unit": "%"}, {"measurement": "biological activity, T-cell activation assay", "setting": "[1]", "value": 40, "unit": "%"}]}]}
